Test results: IntAct's records for PubMed 36127429

B1: Protein SHMOOSE (Homo sapiens), C0HM83 (parent)
chain: MPPCLTTWLSQLLKDNSYPLVLGPKNFGATPNKSNNHAHYYNHPNPDFPNSPHPYHPR
partner: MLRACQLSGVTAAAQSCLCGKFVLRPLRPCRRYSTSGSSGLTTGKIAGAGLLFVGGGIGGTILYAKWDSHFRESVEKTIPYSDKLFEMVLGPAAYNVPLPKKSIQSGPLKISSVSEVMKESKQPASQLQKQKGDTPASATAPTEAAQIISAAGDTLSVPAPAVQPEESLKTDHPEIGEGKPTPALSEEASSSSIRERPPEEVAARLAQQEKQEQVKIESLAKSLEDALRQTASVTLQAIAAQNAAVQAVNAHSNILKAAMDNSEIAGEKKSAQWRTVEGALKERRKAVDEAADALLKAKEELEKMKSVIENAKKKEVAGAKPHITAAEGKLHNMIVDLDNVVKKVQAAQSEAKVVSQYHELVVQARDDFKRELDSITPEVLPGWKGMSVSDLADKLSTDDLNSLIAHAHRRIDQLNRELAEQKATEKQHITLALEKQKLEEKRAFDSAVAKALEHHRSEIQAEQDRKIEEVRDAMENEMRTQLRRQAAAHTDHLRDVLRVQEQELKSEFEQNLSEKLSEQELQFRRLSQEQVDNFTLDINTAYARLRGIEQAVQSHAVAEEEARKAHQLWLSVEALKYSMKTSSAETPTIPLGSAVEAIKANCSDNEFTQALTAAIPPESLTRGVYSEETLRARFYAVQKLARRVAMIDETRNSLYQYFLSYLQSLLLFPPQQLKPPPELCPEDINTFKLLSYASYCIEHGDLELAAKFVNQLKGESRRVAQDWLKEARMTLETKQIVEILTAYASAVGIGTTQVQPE

Variants of: B1
Details: with mic60_human IMMT

Variant | effect of a mutation on the interaction
MPPCLTTWLSQLLKDNSYPLVLGPKNFGATPNKSNNHAHYYNHPNPNFPNSPHPYHPR [D47N] | with no effect
